Target: recombinant Tepary bean lectin (rTBL-1) (Phaseolus acutifolius (Tepary bean))
Assay: SEC; ENrich SEC 650 column, calibrated with gel filtration standard; 200 uL of protein at 10 mg/mL; 20 mM MES pH 6.5, 100 mM NaCl

Q: With “recombinant Tepary bean lectin (rTBL-1) (natural protein)” as the substance, how does the stoichiometry N read?
A: The stoichiometry N was 4.
